# [ ]: non-standard residue; d: D form. pDMA = poly(N,N-dimethylacrylamide) hydrophilic homopolymer (2)
# Target: the molecule itself
# Assay: static light scattering (SLS); conjugates in water, 0.1-3.0 mg mL^-1, filtered (0.45 um PTFE); before and after 1 h of sonication (1 h and 3 days of standing); Nagg = molecular weight of the aggregate / molecular weight of the unimer; length = Nagg x 0.5 nm
protein,measurement,value
"cyclo([dL]K(pDMA)[dL]W[dL]K(pDMA)[dL]W) (cyclo(D-Leu-Lys-D-Leu-Trp)2, printed in three-letter code; designed cyclic octapeptide of alternating D and L residues (cyclic peptide 10); the same CP as in m1; also called control conjugate; fully hydrophilic control conjugate) [CP-(pDMA)2 (4), cyclic peptide-hydrophilic polymer conjugate]",stoichiometry N,25

# From publication PMC6797743, “Dual self-assembly of supramolecular peptide nanotubes to provide stabilisation in water” (Nature Communications, 2019)
